These results are taken from patent US20260027179A1 (UNIVERSITY OF BRITISH COLUMBIA, published 2026).

For the assay, the target named is T1, Purified recombinant human α-synuclein (N-terminal histidine tagged, Sigma, S7820-500UG) (human, UniProt P37840 1-140).
T1 construct: also called immobilized α-synuclein; not shown: N-terminal histidine tag
The experiment in a line: Biacore 3000 SPR, α-synuclein immobilized on CM5 chip, peptide 0.20-12.50 µM injected.

B1: Tat-βsyn-degron peptide (peptide)
peptide: YGRKKRRQRRRRTKSGVYLVGRRRG
notes: Chemically synthesized by GL Biochem; also called α-synuclein targeting peptide
As for B1, the binding result is on record as “binds”.
